Here are results for 118 variants from the emibetuzumab library of Makowski et al. (2022).

B1: VH:VL chains; a variant is named by its letters at X, in order (parent)
chain 1: QVQLVQSGAEVKKPGASVKVSCKASGYTFTDYXMHWVRQAPGQGLEWMGXVNPNXXXTTYNQKFEGRVTMTTDTSTSTAYMELRSLRSDDTAVYYCARXNXLDXWGQGTTVTVSS
chain 2: DIQMTQSPSSLSASVGDRVTITCSVSSSVSSIYLHWYQQKPGKAPKLLIYSTSNLASGVPSRFSGSGSGTDFTLTISSLQPEDFATYYCQVYSGYPLTFGGGTKVEIK

The data set covers variants of B1. Kind of data set: yeast display scFab, FACS + sequencing. The essentials:
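Heavy-chain CDR mutant scFab yeast surface library, FACS-sorted after labelling with biotinylated ovalbumin (260 μg/mL in PBSB, 3 h, room temperature) or soluble membrane proteins (130 μg/mL, 20 min on ice), plus anti-Myc. Gates collected the top 25% and bottom 10% of binders, and samples from two replicates were deep sequenced. Non-specific binding call: a sequence was positive if found in ≥3 of 4 positive samples (membrane protein and ovalbumin pooled) and no negatives, and negative by the converse rule.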
As to VRGKAAVS, the non-specific binding call was “binds”.

As to VRERGSAV, the non-specific binding call is on record as “binds”.

On to FKGRGAAS, for which the non-specific binding call is on record as “binds”.

Regarding VRAKGAGY, the non-specific binding call is on record as “binds”.

As for FRTKAAVY, the non-specific binding call is on record as “binds”.

As for DRREDALD, the non-specific binding call is “no binding”.

On to VEGGGAWA, for which the non-specific binding call is given as “no binding”.

For VRRGGAAS, the non-specific binding call is “binds”.

On to FRGRDSVA, for which the non-specific binding call was “binds”.

For VRRKSSSV, the non-specific binding call is reported as “binds”.

As to YRTRDDVY, the non-specific binding call is “no binding”.

SKGRSSWS: the non-specific binding call is reported as “binds”.

Consider YRRRSSLA, for which the non-specific binding call is recorded as “binds”.

Consider DGGENAGD, for which the non-specific binding call was “no binding”.

Take VEAGDDAA: the non-specific binding call is reported as “no binding”.

As for SREGGFAA, the non-specific binding call is on record as “binds”.

As to SEARSDAS, the non-specific binding call is reported as “no binding”.

Consider YKGAAFAD, for which the non-specific binding call is on record as “binds”.

For YRARSALD, the non-specific binding call is “binds”.

As for VTEGGSVD, the non-specific binding call is “binds”.

SEARSYLV: the non-specific binding call was “no binding”.

Consider SKAGGDVD, for which the non-specific binding call is listed as “no binding”.

For DARGGFGV, the non-specific binding call is on record as “no binding”.

YREGGSVD: the non-specific binding call is reported as “no binding”.

FKTGGAAV: the non-specific binding call was “binds”.

On to VRTRGYLA, for which the non-specific binding call is listed as “binds”.

As to FKRRSVGA, the non-specific binding call is “binds”.

For DKEGGDVD, the non-specific binding call is “no binding”.

With YTAGSDGA, the non-specific binding call is “no binding”.

For ATGEADAS, the non-specific binding call is on record as “no binding”.

For the variant YRTRSAVV, the non-specific binding call is “binds”.

In the case of AGGENDGD, the non-specific binding call is given as “no binding”.

Turning to YTEGDDWY, the non-specific binding call is “no binding”.

With FARKGDGV, the non-specific binding call is “no binding”.

As for YKGKGFGD, the non-specific binding call is on record as “binds”.

As to AATTSFVV, the non-specific binding call is “no binding”.

On to VRGKGSGF, for which the non-specific binding call is reported as “binds”.

Turning to DAARGDGA, the non-specific binding call is “no binding”.

Take VRRTDFVA: the non-specific binding call is reported as “binds”.

VEEEDYSS: the non-specific binding call was “binds”.

YAGRGDAD: the non-specific binding call is “no binding”.

As for SGGGNDLA chain 1 R87K, the non-specific binding call is on record as “no binding”.

Regarding FKGRGDGS, the non-specific binding call is listed as “binds”.

As for VTGRGDVA, the non-specific binding call is recorded as “no binding”.

As to VRGGGFGD, the non-specific binding call was “binds”.

YRTRAAWD: the non-specific binding call is given as “binds”.

Regarding FATEGASA, the non-specific binding call is “no binding”.

Turning to YRTGGAGD, the non-specific binding call was “no binding”.

Consider FRGKGFGV, for which the non-specific binding call is recorded as “binds”.

With DAGGAAAA, the non-specific binding call is recorded as “no binding”.

For SETGGDVA, the non-specific binding call is listed as “no binding”.

In the case of STGEDDVY, the non-specific binding call was “no binding”.

Turning to YRKGGSAA, the non-specific binding call is “binds”.

With YRTKGSGV, the non-specific binding call is on record as “binds”.

For the variant SKGRGSAA, the non-specific binding call is given as “binds”.

With VKGRADAD, the non-specific binding call is “no binding”.

For the variant VKGRGAGS, the non-specific binding call is recorded as “binds”.

For the variant SAEGGSSA, the non-specific binding call is “no binding”.

On to DAARGDAA, for which the non-specific binding call is reported as “no binding”.

For the variant VRRGSSAD, the non-specific binding call was “binds”.

Consider VTGRGDLA, for which the non-specific binding call was “no binding”.

For the variant VRGRSDWV, the non-specific binding call is on record as “no binding”.

Turning to YKGEADGA, the non-specific binding call was “no binding”.

With VKGGGFGA, the non-specific binding call is listed as “binds”.

Regarding YARADSSV, the non-specific binding call is listed as “no binding”.

Turning to YRTRSAAA, the non-specific binding call is recorded as “binds”.

DRGGDDVD: the non-specific binding call was “no binding”.

On to YRKGDAGD, for which the non-specific binding call is on record as “binds”.

As to DATGGDGV, the non-specific binding call is on record as “no binding”.

For YRAGSSGA, the non-specific binding call is on record as “binds”.

With FKGKGAGD, the non-specific binding call is “binds”.

As for VRAGDSGY, the non-specific binding call is given as “no binding”.

Turning to ATGGDSGD, the non-specific binding call is on record as “no binding”.

Turning to YRTRDAGY, the non-specific binding call was “no binding”.

Turning to YAGRGFGF, the non-specific binding call is given as “binds”.

Consider FKGRGAGS, for which the non-specific binding call was “binds”.

For the variant VGGTSDVF, the non-specific binding call is “no binding”.

On to YKGRDDVA, for which the non-specific binding call was “no binding”.

As to FKRGSSLF, the non-specific binding call is recorded as “binds”.

With VTEGDAGD, the non-specific binding call is recorded as “no binding”.

For VRRRGSLF, the non-specific binding call is “binds”.

As for VETGGAAA, the non-specific binding call is “no binding”.

As for VAGKGAGD, the non-specific binding call is “no binding”.

In the case of VEGAAAGS, the non-specific binding call is reported as “no binding”.

Take YRGRGSAF: the non-specific binding call was “binds”.

As to VTGEDDVA, the non-specific binding call is “no binding”.

For SEARSALA, the non-specific binding call was “no binding”.

For the variant VEKGGDAA, the non-specific binding call is reported as “no binding”.

For YRRRGYVD, the non-specific binding call is “binds”.

Turning to DTGKDAGD, the non-specific binding call was “no binding”.

Turning to YKAGGSAS, the non-specific binding call is reported as “binds”.

Consider FRGKGAVS, for which the non-specific binding call is given as “binds”.

On to YKRRGSAA, for which the non-specific binding call was “binds”.

For the variant DRGGDDAD, the non-specific binding call is listed as “no binding”.

Turning to VAKEGAWV, the non-specific binding call is listed as “binds”.

VTGEDSLA: the non-specific binding call is recorded as “no binding”.

AGEGNSWA: the non-specific binding call is listed as “no binding”.

Regarding YTAGSDVA, the non-specific binding call was “no binding”.

In the case of YRGEGSAS, the non-specific binding call is given as “binds”.

In the case of YATAADAD, the non-specific binding call was “no binding”.

For the variant VERGTYGV, the non-specific binding call is recorded as “no binding”.

As for YKGRGASV, the non-specific binding call is “binds”.

With YAGRGASA, the non-specific binding call is “no binding”.

Take VTGTSDLY: the non-specific binding call was “no binding”.

YRKGSASD: the non-specific binding call was “binds”.

Take YTKETAAD: the non-specific binding call is “binds”.

For the variant YRTRDALV, the non-specific binding call is reported as “no binding”.

As for VKARGSAF, the non-specific binding call is “binds”.

Turning to DEGGTSSA, the non-specific binding call is reported as “no binding”.

Consider YRKRGSVF, for which the non-specific binding call is reported as “binds”.

In the case of FRGKGSLA, the non-specific binding call is “binds”.

Consider YKTKGSSY, for which the non-specific binding call is “binds”.

As for DAKEGAAA, the non-specific binding call is “no binding”.

For FRETDFGA, the non-specific binding call is on record as “binds”.

In the case of VKTGGDVF, the non-specific binding call is reported as “no binding”.

For YRGRSSAA, the non-specific binding call was “binds”.

Regarding SEKEGDAA, the non-specific binding call is “no binding”.

Turning to FGGEGDGA, the non-specific binding call is recorded as “binds”.
